Measurements published in publication PMC3552326.
Read-outs that look alike come from different tables or passages of the source.

Legend:
[1] = biological target: Dns100-α-synuclein (L100C, dansyl-labelled) (human) (UniProt P37840); test: FRET or BRET
[2] = biological target: Dns136-α-synuclein (Y136C, dansyl-labelled) (human) (UniProt P37840); test: FRET or BRET
[3] = biological target: Dns100-α-synuclein (L100C, dansyl-labelled) (human) (UniProt P37840); test: other fluorescence titration
[4] = biological target: Dns136-α-synuclein (Y136C, dansyl-labelled) (human) (UniProt P37840); test: other fluorescence titration
[5] = biological target: Dns100-α-synuclein (L100C, dansyl-labelled) (human) (UniProt P37840); test: other fluorescence titration; remark: listed apart in the source
[6] = biological target: Dns136-α-synuclein (Y136C, dansyl-labelled) (human) (UniProt P37840); test: other fluorescence titration; remark: listed apart in the source
[7] = biological target: α-synuclein peptide residues 118–140 containing C136, dansyl-labelled (DnsC23) (human) (UniProt P37840); test: other fluorescence titration
[8] = biological target: Dns136-α-synuclein (Y136C, dansyl-labelled) (human) (UniProt P37840); test: other fluorescence titration; remark: listed apart in the source

<λ> shift [1]: 2 nm | <λ> shift [2]: 6 nm | Kd [3]: 1 µM | Kd [4]: 1 µM | Kd [5]: 40 µM | Kd [6]: 8 µM | Kd [7]: 2 µM | Kd [8]: 11 µM
Substance: glucocerebrosidase (taliglucerase alfa, recombinant GCase) (from UniProt P04062 40-533) (enzyme)
